The chains are these.
B1: Compound 106 (peptide)
peptide: {DOTA-Ahx}-[dY]N[dW]NTF[azaGly]L[X2][4Pal]-NH2
SMILES: Cc1ccc(CNCC(=O)N2CCC(NC(=O)[C@H](CC(C)C)NC(=O)NNC(=O)[C@H](Cc3ccccc3)NC(=O)[C@@H](NC(=O)[C@H](CC(N)=O)NC(=O)[C@@H](Cc3c[nH]c4ccccc34)NC(=O)[C@H](CC(N)=O)NC(=O)[C@@H](Cc3ccc(O)cc3)NC(=O)CCCCCNC(=O)CN3CCN(CC(=O)O)CCN(CC(=O)O)CCN(CC(=O)O)CC3)[C@@H](C)O)(C(=O)N[C@@H](Cc3ccncc3)C(N)=O)CC2)cc1F
B2: Compound 113 (peptide)
peptide: {DOTA-Ahx}-[dY][dW]NAF[azaGly]L[X2]L-NH2
SMILES: Cc1ccc(CNCC(=O)N2CCC(NC(=O)[C@H](CC(C)C)NC(=O)NNC(=O)[C@H](Cc3ccccc3)NC(=O)[C@H](C)NC(=O)[C@H](CC(N)=O)NC(=O)[C@@H](Cc3c[nH]c4ccccc34)NC(=O)[C@@H](Cc3ccc(O)cc3)NC(=O)CCCCCNC(=O)CN3CCN(CC(=O)O)CCN(CC(=O)O)CCN(CC(=O)O)CC3)(C(=O)N[C@@H](CC(C)C)C(N)=O)CC2)cc1F
B3: Compound 107 (peptide)
peptide: {DOTA-Ahx}-[dY][dH][dW]NTF[azaGly]L[X2][4Pal]-NH2
SMILES: Cc1ccc(CNCC(=O)N2CCC(NC(=O)[C@H](CC(C)C)NC(=O)NNC(=O)[C@H](Cc3ccccc3)NC(=O)[C@@H](NC(=O)[C@H](CC(N)=O)NC(=O)[C@@H](Cc3c[nH]c4ccccc34)NC(=O)[C@@H](Cc3c[nH]cn3)NC(=O)[C@@H](Cc3ccc(O)cc3)NC(=O)CCCCCNC(=O)CN3CCN(CC(=O)O)CCN(CC(=O)O)CCN(CC(=O)O)CC3)[C@@H](C)O)(C(=O)N[C@@H](Cc3ccncc3)C(N)=O)CC2)cc1F
B4: Compound 91 (peptide)
peptide: {DOTA-Ahx}-[dY][dW]NTF[azaGly]L[X7]W-NH2
SMILES: CNC(=N)N1CCC(NC(=O)[C@H](CC(C)C)NC(=O)NNC(=O)[C@H](Cc2ccccc2)NC(=O)[C@@H](NC(=O)[C@H](CC(N)=O)NC(=O)[C@@H](Cc2c[nH]c3ccccc23)NC(=O)[C@@H](Cc2ccc(O)cc2)NC(=O)CCCCCNC(=O)CN2CCN(CC(=O)O)CCN(CC(=O)O)CCN(CC(=O)O)CC2)[C@@H](C)O)(C(=O)N[C@@H](Cc2c[nH]c3ccccc23)C(N)=O)CC1
B5: Compound 105 (peptide)
peptide: {DOTA-Ahx}-[dY][dW]NTF[azaGly]L[X2][4Pal]-NH2
SMILES: Cc1ccc(CNCC(=O)N2CCC(NC(=O)[C@H](CC(C)C)NC(=O)NNC(=O)[C@H](Cc3ccccc3)NC(=O)[C@@H](NC(=O)[C@H](CC(N)=O)NC(=O)[C@@H](Cc3c[nH]c4ccccc34)NC(=O)[C@@H](Cc3ccc(O)cc3)NC(=O)CCCCCNC(=O)CN3CCN(CC(=O)O)CCN(CC(=O)O)CCN(CC(=O)O)CC3)[C@@H](C)O)(C(=O)N[C@@H](Cc3ccncc3)C(N)=O)CC2)cc1F
B6: Compound 104 (peptide)
peptide: {DOTA-Ahx}-[dY][dW]NTF[azaGly]L[X2][Phe(4-CN)]-NH2
SMILES: Cc1ccc(CNCC(=O)N2CCC(NC(=O)[C@H](CC(C)C)NC(=O)NNC(=O)[C@H](Cc3ccccc3)NC(=O)[C@@H](NC(=O)[C@H](CC(N)=O)NC(=O)[C@@H](Cc3c[nH]c4ccccc34)NC(=O)[C@@H](Cc3ccc(O)cc3)NC(=O)CCCCCNC(=O)CN3CCN(CC(=O)O)CCN(CC(=O)O)CCN(CC(=O)O)CC3)[C@@H](C)O)(C(=O)N[C@@H](Cc3ccc(C#N)cc3)C(N)=O)CC2)cc1F
B7: Compound 2 (peptide)
peptide: {DOTA-Ahx}-F[azaGly]L[X2]W-NH2
SMILES: Cc1ccc(CNCC(=O)N2CCC(NC(=O)[C@H](CC(C)C)NC(=O)NNC(=O)[C@H](Cc3ccccc3)NC(=O)CCCCCNC(=O)CN3CCN(CC(=O)O)CCN(CC(=O)O)CCN(CC(=O)O)CC3)(C(=O)N[C@@H](Cc3c[nH]c4ccccc34)C(N)=O)CC2)cc1F
B8: Compound 117 (peptide)
peptide: [dY][dW]NTF[azaGly]L[X2]W-NH2
modifications: not fully specified (N-terminus); also: N-terminal Lys linked through its epsilon amine to adipoyl, which acylates D-Tyr1
B9: Compound 108 (peptide)
peptide: {DOTA-Ahx}-[dY][azaGly]NTF[azaGly]L[X2]W-NH2
SMILES: Cc1ccc(CNCC(=O)N2CCC(NC(=O)[C@H](CC(C)C)NC(=O)NNC(=O)[C@H](Cc3ccccc3)NC(=O)[C@@H](NC(=O)[C@H](CC(N)=O)NC(=O)NNC(=O)[C@@H](Cc3ccc(O)cc3)NC(=O)CCCCCNC(=O)CN3CCN(CC(=O)O)CCN(CC(=O)O)CCN(CC(=O)O)CC3)[C@@H](C)O)(C(=O)N[C@@H](Cc3c[nH]c4ccccc34)C(N)=O)CC2)cc1F
B10: Compound 109 (peptide)
peptide: {DOTA-4Amb}-F[azaGly]L[X2]W-NH2
SMILES: Cc1ccc(CNCC(=O)N2CCC(NC(=O)[C@H](CC(C)C)NC(=O)NNC(=O)[C@H](Cc3ccccc3)NC(=O)c3ccc(CNC(=O)CN4CCN(CC(=O)O)CCN(CC(=O)O)CCN(CC(=O)O)CC4)cc3)(C(=O)N[C@@H](Cc3c[nH]c4ccccc34)C(N)=O)CC2)cc1F
B11: Compound 198 (peptide)
peptide: {DOTA}-[Ahx][dY][Bip]NTF[azaGly]L[Api(1-amidino)]W-NH2
SMILES: CC(C)C[C@H](NC(=O)NNC(=O)[C@H](Cc1ccccc1)NC(=O)[C@@H](NC(=O)[C@H](CC(N)=O)NC(=O)[C@H](Cc1ccc(-c2ccccc2)cc1)NC(=O)[C@@H](Cc1ccc(O)cc1)NC(=O)CCCCCNC(=O)CN1CCN(CC(=O)O)CCN(CC(=O)O)CCN(CC(=O)O)CC1)[C@@H](C)O)C(=O)NC1(C(=O)N[C@@H](Cc2c[nH]c3ccccc23)C(N)=O)CCN(C(=N)N)CC1
B12: Compound 184 (peptide)
peptide: {DOTA}-[Ahx][dY][Ala(9-anthryl)]NTF[azaGly]L[Api(1-amidino)]W-NH2
SMILES: CC(C)C[C@H](NC(=O)NNC(=O)[C@H](Cc1ccccc1)NC(=O)[C@@H](NC(=O)[C@H](CC(N)=O)NC(=O)[C@H](Cc1c2ccccc2cc2ccccc12)NC(=O)[C@@H](Cc1ccc(O)cc1)NC(=O)CCCCCNC(=O)CN1CCN(CC(=O)O)CCN(CC(=O)O)CCN(CC(=O)O)CC1)[C@@H](C)O)C(=O)NC1(C(=O)N[C@@H](Cc2c[nH]c3ccccc23)C(N)=O)CCN(C(=N)N)CC1
B13: Compound 185 (peptide)
peptide: {DOTA}-[Ahx][dY][d2Nal]NTF[azaGly]L[Api(1-amidino)]Y-NH2
SMILES: CC(C)C[C@H](NC(=O)NNC(=O)[C@H](Cc1ccccc1)NC(=O)[C@@H](NC(=O)[C@H](CC(N)=O)NC(=O)[C@@H](Cc1ccc2ccccc2c1)NC(=O)[C@@H](Cc1ccc(O)cc1)NC(=O)CCCCCNC(=O)CN1CCN(CC(=O)O)CCN(CC(=O)O)CCN(CC(=O)O)CC1)[C@@H](C)O)C(=O)NC1(C(=O)N[C@@H](Cc2ccc(O)cc2)C(N)=O)CCN(C(=N)N)CC1
B14: Compound 183 (peptide)
peptide: {DOTA}-[Ahx][dY][Bpa]NTF[azaGly]L[Api(1-amidino)]W-NH2
SMILES: CC(C)C[C@H](NC(=O)NNC(=O)[C@H](Cc1ccccc1)NC(=O)[C@@H](NC(=O)[C@H](CC(N)=O)NC(=O)[C@H](Cc1ccc(C(=O)c2ccccc2)cc1)NC(=O)[C@@H](Cc1ccc(O)cc1)NC(=O)CCCCCNC(=O)CN1CCN(CC(=O)O)CCN(CC(=O)O)CCN(CC(=O)O)CC1)[C@@H](C)O)C(=O)NC1(C(=O)N[C@@H](Cc2c[nH]c3ccccc23)C(N)=O)CCN(C(=N)N)CC1

Numbered stars: 1 amine (or outer) side, 2 acyl side, 3 side chain; on linkers, the order of the positions; unused ones are H or OH. Square brackets hold non-standard residues; d marks the D form. Primed or numbered codes have the meaning given here. Side chains are listed from the residue outwards. Ends that are not written are not given here. * marks the point of attachment. X2 = 4‑amino‑1‑((3-fluoro-4-methylbenzyl)glycyl)piperidine‑4‑carboxylic acid, Cc1ccc(CN(CC(=O)N2CCC(N[*:1])(C(=O)[*:2])CC2)[*:3])cc1F; X7 = 4‑amino‑1‑(N-methylcarbamimidoyl)piperidine‑4‑carboxylic acid, CNC(=N)N1CCC(N[*:1])(C(=O)[*:2])CC1; DOTA = O=C(O)CN1CCN(CC(=O)O)CCN(CC(=O)*)CCN(CC(=O)O)CC1; Piperidine‑2‑carboxylic_acid(MeGly) = not defined here; Ala(9-anthryl) = N[C@@H](Cc1c2ccccc2cc2ccccc12)C(=O)O; Bpa = N[C@@H](Cc1ccc(C(=O)c2ccccc2)cc1)C(=O)O; Api(1-amidino) = N=C(N)N1CCC(N)(C(=O)O)CC1; Bip = N[C@@H](Cc1ccc(-c2ccccc2)cc1)C(=O)O; Phe(4-CN) = N#Cc1ccc(C[C@H](N)C(=O)O)cc1; Phe(3-F) = N[C@@H](Cc1cccc(F)c1)C(=O)O; γGlu = O=C(O)[C@H](CCC(=O)[*:2])N[*:1]; 2Nal = N[C@@H](Cc1ccc2ccccc2c1)C(=O)O; d2Nal = N[C@H](Cc1ccc2ccccc2c1)C(=O)O; εLys = N[C@@H](CCCCN[*:1])C(=O)[*:2]; Adipoyl = O=C(CCCCC(=O)[*:2])[*:1]; Palmitoyl = CCCCCCCCCCCCCCCC(=O)*; 4Pal = N[C@@H](Cc1ccncc1)C(=O)O; NH‑glycol = not defined here; 4Amb = NCc1ccc(C(=O)O)cc1; PEG4′ = not defined here; dCsA = not defined here; Ahx = NCCCCCC(=O)O; azaGly = NNC(=O)O

Chain of human kisspeptin receptor (KISS1R) (human), Q969F8 (Q969F8 whole entry): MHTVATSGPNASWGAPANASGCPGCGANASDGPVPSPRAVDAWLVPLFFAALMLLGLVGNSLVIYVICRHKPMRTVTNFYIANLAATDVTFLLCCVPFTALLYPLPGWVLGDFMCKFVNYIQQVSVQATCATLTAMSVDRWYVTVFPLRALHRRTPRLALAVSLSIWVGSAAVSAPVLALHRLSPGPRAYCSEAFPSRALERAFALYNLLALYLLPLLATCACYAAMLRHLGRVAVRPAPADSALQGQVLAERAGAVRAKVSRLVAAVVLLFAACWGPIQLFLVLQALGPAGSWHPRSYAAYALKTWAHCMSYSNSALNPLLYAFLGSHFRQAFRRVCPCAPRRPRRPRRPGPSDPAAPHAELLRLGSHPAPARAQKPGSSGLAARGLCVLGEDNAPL
Chain of human kisspeptin receptor (KISS1R) (human) (Q969F8 whole entry): as above

The first assay addresses human kisspeptin receptor (KISS1R) (human), Q969F8. The assay is described as follows: radioligand competition, hKISS1R membranes; legend: A is <10 nM. Background: Loss of bound radioactivity is the signal in a displacement assay; it reports binding, not function.
As a reminder, the Ki is the equilibrium dissociation constant of an inhibitor or competing ligand from its target. Low readings indicate a stronger hold on the target, high ones a looser hold on the target. Consider {DOTA-Met-Val-εLys-Adipoyl}-[dY][dW]NTF[azaGly]L[X2]W-NH2 [Compound 133], for which the Ki was below 10 nM.
On the same count and under the same terms, under B1 stands below 10 nM; under B2, below 10 nM; under {HO‑PEG3‑C(:O)}-[dY]K(DOTA)NT[Phe(3-F)][azaGly]L[X2]W-NH2 [Compound 64], below 10 nM.
The same measure, in the same setting: the result for B3 reads below 10 nM; that for {DOTA-Ahx}-[dY][dW]NTF[azaGly]L[4‑amino‑1‑((4-methoxybenzyl)glycyl)piperidine‑4‑carboxylic acid]F-NH2 [Compound 140], below 10 nM.
Take B4: the Ki was below 10 nM.
Still for that read-out and setting: the result for B5 reads below 10 nM.
The molecule B6 came in with an inhibitory constant (Ki) below 10 nM.
Same read-out and setting: under B7 stands below 10 nM; under {DOTA-dCsA-Ahx}-[dY][dW]NTF[azaGly]L[X2]W-NH2 (not fully specified; reading uncertain) [Compound 115], below 10 nM; under B8, below 10 nM.
On the same count and under the same terms, the result for B9 reads below 10 nM.
Palmitoyl-[γGlu]K([PEG4′-DOTA])[dY][dW]NTF[azaGly]L[X2]W-NH2 [Compound 119] yielded a Ki below 10 nM.
Still for that read-out and setting: the result for {DOTA-NH‑glycol}-[dY][2Nal]NTF[azaGly]L[X2]W-NH2 (reading uncertain) [Compound 58] reads below 10 nM; that for {DOTA-4Amb-Met-Val-εLys-Adipoyl}-F[azaGly]L[X2]W-NH2 [Compound 132], below 10 nM.
B10 registered a Ki below 10 nM.

Another assay addresses human kisspeptin receptor (KISS1R) (human) (UniProt Q969F8). The assay is described as above.
{DOTA}-[dY][3‑(9-anthryl)alanine]NTF[azaGly]L[Api(1-amidino)][4Pal]-NH2 [Compound 221] yielded a Ki below 10 nM.
On to B11, for which the Ki is below 10 nM.
Consider {DOTA}-[Ahx][dY][d2Nal]NTF[azaGly]L[Piperidine‑2‑carboxylic_acid(MeGly)]W-NH2 (not fully specified; reading uncertain) [Compound 201], for which the inhibition constant (Ki) was below 10 nM.
B12: the Ki was below 10 nM.
On to B13, for which the Ki was below 10 nM.
On the same count and under the same terms, under B14 stands below 10 nM.

(Values after patent US20250312499A1, “KISSPEPTIN RECEPTOR (KISS1R) TARGETED THERAPEUTICS AND USES THEREOF” (priority 2024, published 2025).)
